Measurements: patent US20160303253A1

Biological target: Human trophoblast cell-surface antigen (TROP-2) (human) (UniProt P09758)
Experiment: cell-based or functional assay

Sequence of Human trophoblast cell-surface antigen (TROP-2) (human) (P09758 27-323): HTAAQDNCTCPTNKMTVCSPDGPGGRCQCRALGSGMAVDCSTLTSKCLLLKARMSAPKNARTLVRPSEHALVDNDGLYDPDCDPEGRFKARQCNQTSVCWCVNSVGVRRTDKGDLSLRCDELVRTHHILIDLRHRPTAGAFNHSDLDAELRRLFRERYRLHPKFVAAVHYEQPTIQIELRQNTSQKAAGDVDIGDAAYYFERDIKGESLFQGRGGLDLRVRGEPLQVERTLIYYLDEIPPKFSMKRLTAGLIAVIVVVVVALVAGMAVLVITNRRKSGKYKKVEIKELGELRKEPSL

## hRS7-CL2A-SN-38 (antibody)
  ADC/free SN-38 ratio of IC50, in vitro cytotoxicity, BxPC-3: 2.8
  ADC/free SN-38 ratio of IC50, in vitro cytotoxicity, COLO 205: 1.91
  ADC/free SN-38 ratio of IC50, in vitro cytotoxicity, Calu-3: 1.39
  ADC/free SN-38 ratio of IC50, in vitro cytotoxicity, Capan-1: 2
  ADC/free SN-38 ratio of IC50, in vitro cytotoxicity, PC-3: 2.28
  ADC/free SN-38 ratio of IC50, in vitro cytotoxicity, SK-MES-1: 2.69
